Assay [1] concerns the target JRFL SOSIP trimer (HIV-1 subtype B, truncated at residue 663), negatively selected (HIV-1 subtype B strain JRFL).
Assay [2] addresses 16055 SOSIP trimer (HIV-1 subtype C, truncated at residue 663), negatively selected (HIV-1 subtype C strain 16055). In words: negative-stain EM; negatively selected SOSIP trimers incubated with a ten molar excess of Fab or four-domain sCD4 at RT for 1 hour; 2% uranyl formate; 2D class averages (occupancy) and 3D reconstructions.
The target of assay [3] is JRFL SOSIP trimer (HIV-1 subtype B, truncated at residue 663), negatively selected (HIV-1 subtype B strain JRFL). The assay is described as above.

Here are results for one substance from paper PMC4287557.

Chain of PGT151 Fab (VH): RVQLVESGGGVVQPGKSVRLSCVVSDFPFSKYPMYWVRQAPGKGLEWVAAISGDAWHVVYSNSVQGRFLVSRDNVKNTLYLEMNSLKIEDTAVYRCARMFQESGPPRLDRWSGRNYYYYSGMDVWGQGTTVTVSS
Chain of PGT151 Fab (VL): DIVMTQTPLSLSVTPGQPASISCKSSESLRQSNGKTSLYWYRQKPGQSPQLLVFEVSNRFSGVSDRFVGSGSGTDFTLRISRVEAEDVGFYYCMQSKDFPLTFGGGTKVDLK

On to PGT151 Fab, for which the increase of the melting temperature (Tm) of the JRFL SOSIP-Fab complex over the trimer alone, DSF in assay [1] was determined as 2.1 °C. In assay [2], the percent of trimers with one Fab bound is 34%, the percent of trimers with three Fabs bound was determined as 0% and the percent of trimers with two Fabs bound worked out at 20%. Further, in assay [3], the percent of trimers with one Fab bound was determined as 28%, the percent of trimers with three Fabs bound is 11% and the percent of trimers with two Fabs bound was 36%.
